PMC4570195, “Self-sorting heterodimeric coiled coil peptides with defined and tuneable self-assembly properties” (Scientific Reports, 2015)
Cy5 = fluorescent dye, coupled as Cy5-NHS

B1: KI (peptide)
peptide: Ac-KIAALKEKIAALKEKNAALKWKIAALKE-NH2
notes: de novo designed 28-residue coiled coil peptide, four heptads (gabcdef); also called KI peptide; source: synthetic peptide (solid phase, Fmoc), purified by reverse phase HPLC

What was measured:
EV-Cy5 [1] = experiment: Fluorescence of EV-Cy5 upon addition of EI and KI
Text: To further experimentally verify that the peptides undergo thermodynamic self-sorting we modified EV at the N-terminus with a fluorescent dye (Cy5). Although not considered very environmentally sensitive, cyanine dyes tethered to the terminus of single-stranded DNA display significant changes in fluorescence quantum yield, emission lifetime, and fluorescence anisotropy decay upon hybridization with a complementary DNA strand[34][35]. […] This change in binding partner was also supported by simulations (Fig. 6b). The smaller amount of monomeric EV-Cy5 seen in the experiment after addition of EI is presumably an effect of the kinetics involved in the exchange of partners in the heterodimer. The simulations were run until equilibrium whereas the experimental data was acquired after 30 minutes incubation and the exchange was likely not fully completed within this time frame.
Figure 6 (a) Fluorescence spectra and (b) change in normalized intensity at 667 nm for EV-Cy5 upon addition of EI and KI. Addition of the complimentary peptide KI, thus forming EVKI dimers, results in an increase in fluorescence intensity. Subsequent addition of EI reduces the fluorescence intensity due to formation of EIKI dimers, leaving free EV-Cy5. […]
Fmoc-protected amino acids were purchased from Iris Biotech GmbH. […] Peptide concentrations were determined by UV absorbance (ε280(Trp) = 5690 M^−1 cm^−1). […]

EV-Cy5 [2] = biological target: T1, EV-Cy5 (Cy5 at the N-terminus (Cy5-NHS used instead of acetic anhydride)); experiment: fluorescence emission intensity of a Cy5-labelled peptide; EV-Cy5 5 μM, KI 5 μM added, then EI 5 μM; 30 minutes incubation; intensity at 667 nm; details: both partners purified
T1 construct: de novo designed 28-residue coiled coil peptide; also called EV modified at the N-terminus with Cy5; source: synthetic peptide (solid phase, Fmoc), purified by reverse phase HPLC
T1 peptide: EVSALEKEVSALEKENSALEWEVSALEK

KI [3] = biological target: B1; experiment: circular dichroism, thermal denaturation; Kd at 75 °C, as used for the self-sorting simulations; details: both partners purified
KV [4] = biological target: T2, KV (N-terminal acetylation); experiment: method of continuous variation by circular dichroism; molar ratio of each monomer varied, ellipticity at 222 nm measured; details: both partners purified
T2 construct: de novo designed 28-residue coiled coil peptide, four heptads (gabcdef); also called KV peptide; source: synthetic peptide (solid phase, Fmoc), purified by reverse phase HPLC
T2 peptide: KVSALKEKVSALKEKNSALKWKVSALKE

KI [5] = biological target: B1; experiment: as above; details: both partners purified
KV [6] = biological target: T2, KV; experiment: circular dichroism, thermal denaturation; thermal denaturation at different peptide monomer concentrations, Tm related to Kd; Kd at 20 °C; 10 mM phosphate buffer pH 7; details: both partners purified
KI [7] = biological target: B1; experiment: as above; details: both partners purified
KV [8] = biological target: T2, KV; experiment: circular dichroism, thermal denaturation; Kd at 75 °C, as used for the self-sorting simulations; details: both partners purified

With “EV-Cy5: EV modified at the N-terminus with a fluorescent dye (Cy5) (Cy5-EVSALEKEVSALEKENSALEWEVSALEK-NH2)” the “change in fluorescence emission intensity, EI added prior to KI” value (EV-Cy5 [1]; EI added to EV-Cy5 prior to KI, otherwise identical conditions) was “a slight decrease in fluorescence intensity” and the “change in fluorescence emission intensity” value (EV-Cy5 [1]; EV-Cy5 5 μM, KI 5 μM then EI 5 μM, 30 min incubation, 667 nm, PB pH 7) was “a drop in emission intensity, close to the original intensity of the monomeric EV-Cy5”.

B1: binds (EV-Cy5 [2]).

B2: EV (peptide)
peptide: Ac-EVSALEKEVSALEKENSALEWEVSALEK-NH2
notes: de novo designed 28-residue coiled coil peptide, four heptads (gabcdef); also called EV peptide; source: synthetic peptide (solid phase, Fmoc), purified by reverse phase HPLC
In the case of B2, the Kd (KI [3]) is reported as greater than 0.2 µM, the “stoichiometry N” value (KV [4]) is reported as 1 and the “stoichiometry N” value (KI [5]) is reported as 1. It also gave a Kd (KV [6]) of 1.4 µM and a Kd (KI [7]) of 0.085 µM.

B3: EI (peptide)
peptide: Ac-EIAALEKEIAALEKENAALEWEIAALEK-NH2
notes: de novo designed 28-residue coiled coil peptide, four heptads (gabcdef); also called EI peptide; source: synthetic peptide (solid phase, Fmoc), purified by reverse phase HPLC
B3 was tested, and the Kd (KV [8]) was greater than 0.2 µM, the “stoichiometry N” value (KV [4]) was 1 and the “stoichiometry N” value (KI [5]) was 1. It also gave a Kd (KV [6]) of 0.072 µM and a Kd (KI [7]) of less than 0.0001 µM.
